According to patent US20030211979A1, “FAP-activated anti-tumor compounds” (Boehringer Ingelheim Pharma GmbH & Co. KG, priority 2002, published 2003):

How the values were obtained:
[1] = Solubility test in a phosphate buffer; type: physicochemical
Text: The solubilities of the compounds of formula
in a phosphate buffer have been compared.

FAP = target: T1, FAP (Homo sapiens, UniProt Q12884); experiment: Assay for cleavage of MNA substrates by FAP; type: biochemical; conditions: 1 ng FAP enzyme (extract of FAP-transfected 293 cells), 20 μl 2.5 mM substrate, 1 hour at room temperature, fluorescence Ex 355/Em 405 nm, FAP-negative 293 control subtracted
T1 construct: expressed in transfected cells; host or cells: 293 cells stably transfected with FAP; cell extract
T1 sequence (Q12884 1-760): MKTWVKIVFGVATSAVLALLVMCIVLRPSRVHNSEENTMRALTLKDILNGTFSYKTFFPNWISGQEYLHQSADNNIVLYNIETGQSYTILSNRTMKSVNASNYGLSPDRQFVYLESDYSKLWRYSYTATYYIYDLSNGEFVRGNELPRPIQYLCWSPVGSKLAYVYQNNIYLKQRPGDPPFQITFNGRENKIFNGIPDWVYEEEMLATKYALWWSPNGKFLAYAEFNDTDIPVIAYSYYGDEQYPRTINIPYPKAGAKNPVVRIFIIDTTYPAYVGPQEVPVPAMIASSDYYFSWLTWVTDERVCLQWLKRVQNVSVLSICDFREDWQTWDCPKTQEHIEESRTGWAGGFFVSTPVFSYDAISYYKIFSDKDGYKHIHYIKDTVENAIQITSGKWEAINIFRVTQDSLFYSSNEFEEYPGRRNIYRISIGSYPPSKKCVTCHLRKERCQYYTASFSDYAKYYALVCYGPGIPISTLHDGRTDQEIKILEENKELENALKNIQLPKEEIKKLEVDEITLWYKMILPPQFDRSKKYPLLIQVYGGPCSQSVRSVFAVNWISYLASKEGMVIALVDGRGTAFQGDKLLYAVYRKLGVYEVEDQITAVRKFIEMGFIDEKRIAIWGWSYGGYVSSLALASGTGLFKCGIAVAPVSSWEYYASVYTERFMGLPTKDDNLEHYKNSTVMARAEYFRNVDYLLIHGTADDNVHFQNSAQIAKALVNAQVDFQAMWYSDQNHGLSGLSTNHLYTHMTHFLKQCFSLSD
Description: Assay for Cleavage of MNA Substrates by FAP: Buffer A: 100 mM Tris HCl pH 7.8, 100 mM NaCl Cell extract from 293 cells stably transfected with FAP prepared as described (see Park, et al., Fibroblast Activation Protein, a Dual Specificity Serine Protease expressed in human tumor stromal fibroblasts. (1999) J. Biol. Chem. 36505-12.). A similar extract was also prepared from parental 293 control cells without FAP. The FAP concentration in the FAP-transfected cell extract was estimated by immunoassay and 1 ng enzyme (diluted in buffer A) was used per assay. FAP-negative 293 control cell extract was used at the same dilution (also in buffer A) as a negative control. Substrate was initially dissolved in dimethylformamide at a concentration of 200 mM and diluted in buffer A to a final concentration of 2.5 mM. A few substrates were not soluble at this concentration and had to be diluted further. Assay Conditions: 10 μl 10% DMSO in buffer A 70 μl diluted FAP cell extract containing 1 ng FAP enzyme (OR control 293 cell extract without FAP) 20 μl 2.5 mM substrate Mix, incubate at room temperature for 1 hour, and measure fluorescence in Fluorostar fluorimeter at the following wavelengths: MNA conjugates: Excitation: 355 nm, Emission: 405 nm. The fluorescence measured in the samples treated with control 293 control cell extracts without FAP is subtracted from the values measured in the samples treated with 1 ng FAP enzyme.

Molecule	solubility [1] [µg/mL]	Cleavage (FAP) [µM]
COc1cccc2c1C(=O)c1c(O)c3c(c(O)c1C2=O)C[C@@](O)(C(=O)CO)C[C@@H]3OC1CC(NC(=O)[C@@H]2CCCN2C(=O)CNC(=O)[C@H](C)NC(=O)[C@@H]2CCCN2C(=O)Cc2ccccc2)C(O)C(C)O1 (some centres unmarked) [B, reference compound]	< 2000	
[2-(2-Carboxymethyl-phenyl)-acetyl]-Pro-Ala-Gly-Pro-MNA (PAGP; N-terminal 2-carboxymethylphenylacetyl; C-terminal MNA; printed: Pro-Ala-Gly-Pro-)		0.94
[2-(3-Carboxymethyl-phenyl)-acetyl]-N-MeIle-Ala-Gly-Pro-MNA (IAGP; N-terminal 3-carboxymethylphenylacetyl, N-methyl; C-terminal MNA; printed: Ile-Ala-Gly-Pro-)		15.36
[2-(3-Carboxymethyl-phenyl)-acetyl]-N-MeLeu-Ala-Gly-Pro-MNA (LAGP; N-terminal 3-carboxymethylphenylacetyl, N-methyl; C-terminal MNA; printed: Leu-Ala-Gly-Pro-)		12.00
[2-(3-Carboxymethyl-phenyl)-acetyl]-N-MeVal-Ala-Gly-Pro-MNA (VAGP; N-terminal 3-carboxymethylphenylacetyl, N-methyl; C-terminal MNA; printed: Val-Ala-Gly-Pro-)		9.52
[2-(3-Carboxymethyl-phenyl)-acetyl]-Pro-Ala-Gly-Pro-MNA (PAGP; N-terminal 3-carboxymethylphenylacetyl; C-terminal MNA; printed: Pro-Ala-Gly-Pro-)		2.80
[2-(4-Carboxymethyl-phenyl)-acetyl]-Aze-Ala-Gly-Pro-MNA		9.54
[2-(4-Carboxymethyl-phenyl)-acetyl]-N-MeIle-Ala-Gly-Pro-MNA (IAGP; N-terminal 4-carboxymethylphenylacetyl, N-methyl; C-terminal MNA; printed: Ile-Ala-Gly-Pro-)		16.36
[2-(4-Carboxymethyl-phenyl)-acetyl]-N-MeLeu-Ala-Gly-Pro-MNA (LAGP; N-terminal 4-carboxymethylphenylacetyl, N-methyl; C-terminal MNA; printed: Leu-Ala-Gly-Pro-)		13.97
[2-(4-Carboxymethyl-phenyl)-acetyl]-N-MeVal-Ala-Gly-Pro-MNA (VAGP; N-terminal 4-carboxymethylphenylacetyl, N-methyl; C-terminal MNA; printed: Val-Ala-Gly-Pro-)		13.39
[2-(4-Carboxymethyl-phenyl)-acetyl]-Pro-Ala-Gly-Pro-MNA (PAGP; N-terminal 4-carboxymethylphenylacetyl; C-terminal MNA; printed: Pro-Ala-Gly-Pro-)		7.25
